Assay: soluble on expression in E. coli; label from the status in PepcDB or PDB records
In the case of “MPEPHAVLYVTNELSHIVKNEFLPIWKLTGDESLNDLWLENGKYATDVYAYGDVSKWTIRQLRGHGFIFISTHKNVQLADIIKTVDVRVPREVARSHDMKAFENEIGRRRIRMRKGFGDALRNYAFKMAIEFHGSEAETLNDANPRLHKIYGMPEIPPLYMEYAEIGTRFDDEPTDEKLVSMLHYIVYSAEEVHYIGCGDLRTLMQFKKRSPGRFRRVLWHVYDPIAPECSDPNVIVHNIMVDSKKDILKHMNFLKRVERPFIWDVSSDRSQMNDHEWETTRFAEDRLGEEIAYEMGGAFSSALIKHRIPNSKDEYHCISTYLFPQPGADADMYELRNFMRLRGYSHVDRHMHPDASVTKVVSRDVRKMVELYHGRDCGSFLKKRLFEHLHIVRKNGLLHESDEPRADLFYLTNRCNMGLEPSIYEVMKKSVIATAWVGRAPLYDYDDFALPRSTVMLNGSYRDIRILDGNGAILFLMWRYPDIVKKDLTYDPAWAMNFAVSLKEPIPDPPVPDISLCRFIGLRVESSVLRVRNPTLHETADELKRMGLDLSGHLYVTLMSGAYVTDLFWWFKMILDWSAQNREQKLRDLKRSAAEVIEWKEQMAERPWHVRNDLIAALREYKRKMGMREGASIDSWLELLRHL”, the “soluble on expression in E. coli” value is reported as “soluble”.
With “MGSDKIHHHHHHMVRPASRSERASLRIMNINPWRCEVSEKLLKQVNDKVSLCEKIAAEGFSFVPGQQIREWLLASNSEALQDWQAFDASWDGMPLDEYMADGGRYRRRRFATLSAATEGPIMLEPHQPHYQSREYNSLNGGIARIYEPIPPAVIQGQTMQSILQLSRDLFSHLRPQTRWHIEAHQFRIETNQHERGQPAPEGVHRDGVDYVLVMMVKRVNISSGTTTLHNLDKVVLDSFTLTNPLDCALVDDRRCMHGVTPVEQIDPAKAAYRDVLVVTFTAKL” the “soluble on expression in E. coli” value was “not soluble”.
With “MCRALQEQREASAAIAREILGDIKLNVTDGEFAVSIAQQEALESYVDLLEKQEQELIAELHRTVLRLSAKIAATRHLRNLAIREAGKQQGMRMAEDTTERGERQHEEA” the “soluble on expression in E. coli” value was “not soluble”.
In the case of “MNNPDLPYRQALECLSQKQYNFTEVRRLLTEAFSAGHPAAAFELAKHLMDADSPYQDREQGMEMLRIAAEQGHPYARYNLAYIQELEGAPPETLIPLYRPLAEEGLPEAQVRLMYLLYASRHFEEALEWAKTSAKNNNPHGQYLLAQYCRYGTPPDFETAHLLYRKSAAQGLPEAHWQLGLQYRFGQGTKVDTAQAVNHLRAAAQQGYIPAYTPLAELILPTAPDEAVHWFQQAAQENDPDAHAALADIYLQGKHLERNHKLALHHAEAAAAERHPEGLRILGDICRYGLGIAPDTEKARHYYRQAAEAGSLSAYQKLISDSALNHPDQYGGIKDSAIRRQRAERLYQKAQALHYGLQCAPEYAAALKLYTEAAELGHSKAQTNLGSMYYFGQGMTADYNEARKWFEKAAAKKDSMAFYNLACIHYSGHGVEPDKEKACRYLQEAINNGYGQKSVLQELLQQWQNAV”, the “soluble on expression in E. coli” value is reported as “not soluble”.
In the case of “MGFFNFIKTVGEKLGIGDSEPTEKDFKTAFDNFQLGTEKVNIQVENGKVVLSGEVPDRETLEKALLVVGNAQGISSVDIGQLKVADTACMKASRFYEVKSGDNLWKIAEEVYGKGQGDKNTFIFEANKPMLKSPDKIYPGQVLRIPEIDRA”, the “soluble on expression in E. coli” value is reported as “not soluble”.
For “MSLNNIAPQSPVMRRLTLQDNPAIARVIRQVSAEYGLTADKGYTVADPNLDELYQVYSQPGHAYWVVEYEGEVVGGGGIAPLTGSESDICELQKMYFLPAIRGKGLAKKLALMAMEQAREMGFKRCYLETTAFLKEAIALYEHLGFEHIDYALGCTGHVDCEVRMLRELEGHHHHHH”, the “soluble on expression in E. coli” value was “soluble”.
In the case of “EHGWCGHLCPLGAAYGVIGRKSLLRVTAVRREDCTKCMDCFYVCPEPEVLRQPLKEGDRRVMVQNCISCGRCLDVCPEQVFEFKNRLNVKNID”, the “soluble on expression in E. coli” value is reported as “not soluble”.
With “MGRLSGKTILVTGAASGIGRAALDLFAREGASLVAVDREERLLAEAVAALEAEAIAVVADVSDPKAVEAVFAEALEEFGRLHGVAHFAGVAHSALSWNLPLEAWEKVLRVNLTGSFLVARKAGEVLEEGGSLVLTGSVAGLGAFGLAHYAAGKLGVVGLARTLALELARKGVRVNVLLPGLIQTPMTAGLPPWAWEQEVGASPLGRAGRPEEVAQAALFLLSEESAYITGQALYVDGGRSIVGPPGLPPGFGPKGGERHAHVL” the “soluble on expression in E. coli” value was “soluble”.
In the case of “MVKETKFYDILGVPVTATDVEIKKAYRKCALKYHPDKNPSEEAAEKFKEASAAYEILSDPEKRDIYDQFGEDGLSGAGGAGGFPGGGFGFGDDIFSQFFGAGGAQRPRGPQRGKDIKHEISASLEELYKGRTAKLALNKQILCKECEGRGGKKGAVKKCTSCNGQGIKFVTRQMGPMIQRFQTECDVCHGTGDIIDPKDRCKSCNGKKVENERKILEVHVEPGMKDGQRIVFKGEADQAPDVIPGDVVFIVSERPHKSFKRDGDDLVYEAEIDLLTAIAGGEFALEHVSGDWLKVGIVPGEVIAPGMRKVIEGKGMPIPKYGGYGNLIIKFTIKFPENHFTSEENLKKLEEILPPRIVPAIPKKATVDECVLADFDPAKYNRTRASRGGANYDSDEEEQGGEGVQCASQ”, the “soluble on expression in E. coli” value is reported as “not soluble”.
With “MVSAPASASSSPASSSFQSFFWQAAARPRAEPKRQALKRITLMTTDKTSPYEIHDDRFRHLIVGNAELEELYSGCRWAEGPVWFADLNCLLFSDIPNERMLRWVPDGGISVFRQPSNFTNGNTRDRQGRLVSCEHGGRRVTRTEVDGSITVLADSYGGKRLNSPNDVVVKSDGSVWFTDPTYGILSDYEGYKAEPEQKTRNVYRLDPATGKIDIAIDDFVQPNGLAFSPDETKLYVADSSYSHDISRPRHIRVFDVVDGVRLANGREFCNLDNGLPDGFRLDTAGNLWTSAGDGVHCFAPDGRLIGKIKVPQTVANLTFGGPKKNRLFITATKSLYSVYVAATGAQTPLEHHHHHH” the “soluble on expression in E. coli” value was “soluble”.
In the case of “MASNSSSCPTPGGGHLNGYPVPPYAFFFPPMLGGLSPPGALTTLQHQLPVSGYSTPSPATIETQSSSSEEIVPSPPSPPPLPRIYKPCFVCQDKSSGYHYGVSACEGCKGFFRRSIQKNMVYTCHRDKNCIINKVTRNRCQYCRLQKCFEVGMSKESVRNDRNKKKKEVPKPECSESYTLTPEVGELIEKVRKAHQETFPALCQLGKYTTNNSSEQRVSLDIDLWDKFSELSTKCIIKTVEFAKQLPGFTTLTIADQITLLKAACLDILILRICTRYTPEQDTMTFSDGLTLNRTQMHNAGFGPLTDLVFAFANQLLPLEMDDAETGLLSAICLICGDRQDLEQPDRVDMLQEPLLEALKVYVRKRRPSRPHMFPKMLMKITDLRSISAKGAERVITLKMEIPGSMPPLIQEMLENSEGLDTLSGQPGGGGRDGGGLAPPPGSCSPSLSPSSNRSSPATHSP”, the “soluble on expression in E. coli” value is reported as “soluble”.
For “RQAVGPGGVPAGAGGSGAVLGPEAAGPEREEPECGSSGGGMSRPPPTGKMPGAPETAPGDGAGASRQRKLEALIRDPRSPINVESLLDGLNSLVLDLDFPALRKNKNIDNFLNRYEKIVKKIRGLQMKAEDYDVVKVIGRGAFGEVQLVRHKASQKVYAMKLLSKFEMIKRSDSAFFWEERDIMAFANSPWVVQLFYAFQDDRYLYMVMEYMPGGDLVNLMSNYDVPEKWAKFYTAEVVLALDAIHSMGLIHRDVKPDNMLLDKHGHLKLADFGTCMKMDETGMVHCDTAVGTPDYISPEVLKSQGGDGFYGRECDWWSVGVFLYEMLVGDTPFYADSLVGTYSKIMDHKNSLCFPEDAEISKHAKNLICAFLTDREVRLGRNGVEEIRQHPFFKNDQWHWDNIRETAAPVVPELSSDIDSSNFDDIEDDKGDVETFPIPKAFVGNQLPFIGFTYYRENLLLSDSPSCRENDSIQSRKNEESQEIQKKLYTLEEHLSNEMQAKEELEQKCKSVNTRLEKTAKELEEEITLRKSVESALRQLEREKALLQHKNAEYQRKADHEADKKRNLENDVNSLKDQLEDLKKRNQNSQISTEKVNQLQRQLDETNALLRTESDTAARLRKTQAESSKQIQQLESNNRDLQDKNCLLETAKLKLEKEFINLQSALESERRDRTHGSEIINDLQGRICGLEEDLKNGKILLAKVELEKRQLQERFTDLEKEKSNMEIDMTYQLKVIQQSLEQEEAEHKATKARLADKNKIYESIEEAKSEAMKEMEKKLLEERTLKQKVENLLLEAEKRCSLLDCDLKQSQQKINELLKQKDVLNEDVRNLTLKIEQETQKRCLTQNDLKMQTQQVNTLKMSEKQLKQENNHLMEMKMNLEKQNAELRKERQDADGQMKELQDQLEAEQYFSTLYKTQVRELKEECEEKTKLGKELQQKKQELQDERDSLAAQLEITLTKADSEQLARSIAEEQYSDLEKEKIMKELEIKEMMARHKQELTEKDATIASLEETNRTLTSDVANLANEKEELNNKLKDVQEQLSRLKDEEISAAAIKAQFEKQLLTERTLKTQAVNKLAEIMNRKEPVKRGNDTDVRRKEKENRKLHMELKSEREKLTQQMIKYQKELNEMQAQIAEESQIRIELQMTLDSKDSDIEQLRSQLQALHIGLDSSSIGSGPGDAEADDGFPESRLEGWLSLPVRNNTKKFGWVKKYVIVSSKKILFYDSEQDKEQSNPYMVLDIDKLFHVRPVTQTDVYRADAKEIPRIFQILYANEGESKKEQEFPVEPVGEKSNYICHKGHEFIPTLYHFPTNCEACMKPLWHMFKPPPALECRRCHIKCHKDHMDKKEEIIAPCKVYYDISTAKNLLLLANSTEEQQKWVSRLVKKIPKKPPAPDPFARSSPRTSMKIQQNQSIRRPSRQLAPNKPS”, the “soluble on expression in E. coli” value was “soluble”.
With “MNNFTMPDKKYFLFAARRADDQLILVVPKSGERFLMNEELLRRDYNVQLGDFLHCKINRSKELYDISKTKHTANISTVVNGDEAIIENLRADLVSSDELLLFQSQLFDDIRCWQSDQPIGRYYIKMRLFPTSREMSGRMIHYEVVKITGSVKSIELNKQQGNFQQNIDSGYSAASEKTESSAGFSQSPAAGLPSPQNLIYPAGSKKIVSQQGTQVVGPGCPLVKKEETPANKIMGTGFPKSTKREENVFGSELLQQKKNNEKPGSTVGKGFTTSQTIGEKQRAVVTSIDAKRPGTYYLWNLDSKTEGLLKSTTPLELGHQFAGIFVNQENGKCFCKEYIGEIERVLEGKVNDTNKVNLTVKLLDFQPAGVNRRRASGTAKYIGDVLEGNTEDTKLTIECIGKKVNIERRKFGEKDFVWMVTEIRNCSQYDQKIF” the “soluble on expression in E. coli” value was “not soluble”.
For “MSIFQSFKSVAAAIAVCAGIFTGFSANAQSVDDIVKRGSVKIGVLVGAPPFGSVDAQGNPVGYDADVATLIGKYLGVPVTMVQLTPPSRIPALESGKVDFLVATLAPTPERAKAVMFTNPYSAFQVGIYSHKDTKIEKWEDLKGMTVGVNRGSSVEREFVNREKELGLTILRFDDDATTMQALFSGQVQAIAGPDAQANAAIKLRGDTTTEVKFFFSIQPNSMTVRKDAVDLHQWLNNTIYYIKQNGELDAIARKWVGTPLPVLPTF”, the “soluble on expression in E. coli” value was “not soluble”.
With “MKKFAAVIAVMALCSAPVMAAEQGGFSGPSATQSQAGGFQGPNGSVTTVESAKSLRDDTWVTLRGNIVERISDDLYVFKDASGTINVDIDHKRWNGVTVTPKDTVEIQGEVDKDWNSVEIDVKQIRKVNP” the “soluble on expression in E. coli” value was “soluble”.
For “MSLKILVVGPSWVGDMMMSQSLYRTLRARYPQAIIDVMAPAWCRPLLSRMPEVNEAIPMPLGHGALAIGERRKLGHSVRERRYDRAYVLPNSFKSALVPFFANIPLRTGWRGEMRYGLLNDARVLDKDAWPLMVERYVALAYDNGVMRCAKDLPQPLVWPQLQVNEGEKSQACSAFNLSNDRPIIGFCPGAEFGPAKRWPHYHYAALAKKLIDDGYQIALFGSAKDNEAGKEIIAAISSEQQAWCRNLAGETQLEQAVILIAACKAVVTNDSGLMHVAAALDRPLVALYGPSSPDFTPPLSHKARVIRLITGYHKVRKGDAAEGYHQSLIDITPERVLQELNELLAEKTEHEEAEGGSHHHHHH”, the “soluble on expression in E. coli” value was “soluble”.
